Test results: the supplement of paper PMC10126150
± gives the standard deviation of the averaged measurements.

Test system: ATP
Test: switch fluorescence ratio, 500 uM ATP over buffer (Cy3 cluster intensity, sum of 5 cycles each) (fold (ratio)); higher = stronger signal-on switching upon ATP binding; sequences stand for … in TCGTCGGCAGCGTCAGATGTGTATAAGAGACAGTTTTTTTTTTTTTTTTTTTTTTTTT…TC
Settings: aptamer strand: ATP DNA aptamer (quencher-CACCTGGGGGAGTATTGCGGAGGAAGG + anchor), 100 nM annealed; ATP concentration: 500 uM
Summary of the method: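 Values give the fluorescence ratio for each switch-domain sequence, averaged from per-cluster ratios of summed target-cycle to summed buffer-cycle Cy3 intensity. The Cy3-labelled switching-strand clusters sat on a modified Illumina MiSeq flow-cell, were annealed to 100 nM quencher-labelled ATP aptamer, and were imaged in selection buffer, then after 15 min with 500 uM ATP at 22 °C. Five cycles ran with NaOH stripping and re-annealing between them, and clusters outside 100-1000 RFU were excluded.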
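Also: ATP exposure 15 min at 22 °C before imaging.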

| Sequence | switch fluorescence ratio |
| --- | --- |
| AATATAGTTG | 1.02 ± 0.018 |
| GGCGACTAAA | 1.07 ± 0.057 |
| ACGAGGGATG | 1.01 ± 0.029 |
| GACGTTTTAG | 0.993 ± 0.052 |
| TTTGGTTTTG | 0.995 ± 0.038 |
| GCTTTTTGGG | 0.963 ± 0.039 |
| GAGTGAATTT | 1.0074 ± 0.00014 |
| ATAGGGGGTT | 0.98 ± 0.022 |
| GTTCGGGGTT | 1.014 ± 0.0016 |
| TGTCCGGTGG | 1.01 ± 0.066 |
| ATTGGGGAGC | 0.989 ± 0.014 |
| AGTATTTTTT | 0.995 ± 0.01 |
| TTGTTTAAAG | 0.9764 ± 0.0021 |
| TAGGCTGAAA | 0.9906 ± 0.0024 |
| AGATTAGAT | 0.993 ± 0.015 |
| ATAATTATA | 1.01 ± 0.018 |
| GTGCTTTGCG | 0.9928 ± 0.0014 |
| GGGGTTGACA | 1.04 ± 0.051 |
| AGCTTAGGGA | 0.99 ± 0.036 |
| GAACTAGGGC | 1.02 ± 0.1 |
| GCTGGGGACT | 0.996 ± 0.02 |
| GGAAAGGTTT | 1.01 ± 0.064 |
| ACTAGGGATG | 0.987 ± 0.014 |

| Sequence | switch fluorescence ratio |
| --- | --- |
| GCTATTATAC | 1.47 ± 0.0019 |
| AAGTTCAGTA | 0.9673 ± 0.0084 |
| GTTTGGACAG | 1.007 ± 0.01 |
| TTTTGGATCG | 1 ± 0.012 |
| AACAGGCGGG | 0.993 ± 0.027 |
| CGGGTGGCGA | 1.02 ± 0.081 |
| TGGAAGCGTC | 1.02 ± 0.022 |
| TTGTTAGTCA | 1.0317 ± 4.4e-05 |
| TTTATGGTAT | 0.982 ± 0.028 |
| TTTGTCCCTT | 1.01 ± 0.041 |
| CGTTTTTGAA | 0.99 ± 0.025 |
| GCGATAGCTC | 0.973 ± 0.043 |
| CATTGGAGCA | 1.027 ± 0.0086 |
| TTTATAATAG | 0.991 ± 0.025 |
| TCGGGGGCAC | 1.45 ± 0.71 |
| AGGGGTTGTT | 1.07 ± 0.091 |
| GCCATACGCG | 1.03 ± 0.016 |
| TACTTAGGAT | 1.02 ± 0.044 |
| GGAATAAAGT | 0.996 ± 0.021 |
| TATCTACGGG | 1.036 ± 0.0013 |
| ACTAAAGTGC | 1.01 ± 0.03 |
| GGTGATTATT | 1.02 ± 0.029 |
| TGAGAATGTT | 1.09 ± 0.19 |

| Sequence | switch fluorescence ratio |
| --- | --- |
| ATGTGATGGC | 0.981 ± 0.019 |
| AGGGATCCTT | 1.02 ± 0.031 |
| ATTACTGAGT | 1.03 ± 0.015 |
| GCGGGGTTTC | 1.03 ± 0.059 |
| GTCAGTGGGG | 1.02 ± 0.052 |
| TTACCTTAGT | 1.06 ± 0.034 |
| AGATTAGGGA | 0.975 ± 0.017 |
| AGGGTATCTC | 1.08 ± 0.1 |
| GGGTCCACAG | 1.01 ± 0.04 |
| TCTATGCATG | 1.04 ± 0.029 |
| AACAGGGTTT | 1.01 ± 0.075 |
| TTGTTTAACG | 0.99757 ± 0.00042 |
| CATCTCGTTT | 1.02 ± 0.042 |
| CGTGAATCTG | 0.9669 ± 0.006 |
| GTAAGTGAGC | 1.034 ± 0.0026 |
| GATATTCCTG | 1 ± 0.03 |
| CGGTCCAATC | 1.37 ± 0.052 |
| ACTTATGTTG | 0.995 ± 0.024 |
| GCGGGGCAGC | 1.001 ± 0.0068 |
| GGGTTAACGT | 0.987 ± 0.017 |
| AGAGATTGTT | 0.94745 ± 0.00025 |
| CGGGGGATGG | 1.01 ± 0.045 |
| ATGAGGTTGG | 0.973 ± 0.055 |

| Sequence | switch fluorescence ratio |
| --- | --- |
| AAGGGTTTGA | 1.032 ± 0.0096 |
| GGAGTGAGCG | 0.995 ± 0.036 |
| TTTTTCCCGC | 1.07 ± 0.053 |
| TTTTGCGGTG | 1.01 ± 0.017 |
| TCTGATTGTG | 0.972 ± 0.047 |
| TTCGTGGTTT | 1.032 ± 0.0055 |
| CGGGAAGGCC | 0.98791 ± 0.00011 |
| AAAAGCGGTA | 1 ± 0.054 |
| CGATGGTAGA | 1.03 ± 0.027 |
| TCGAACGTTG | 1.034 ± 0.0026 |
| GGTTCAGGTG | 3.38 ± 0.34 |
| ATATGGATGA | 0.96 ± 0.03 |
| TTTACAGATT | 0.982 ± 0.023 |
| TTGAAAAATG | 1.03 ± 0.028 |
| GTTTTATGCT | 1.01 ± 0.017 |
| CGGGCCGTTT | 1.06 ± 0.077 |
| GTTAAACGTT | 1 ± 0.014 |
| GATGTTGTGG | 0.9751 ± 0.0029 |
| CGCTTCTGGG | 0.98 ± 0.011 |
| CCGTTGTGGT | 1.05 ± 0.068 |
| GTTAGGTACG | 1 ± 0.07 |
| TTGGGTTTAC | 1.02 ± 0.049 |
| CGGGGGGTGG | 1 ± 0.039 |

| Sequence | switch fluorescence ratio |
| --- | --- |
| AGATGTTGTT | 1.01 ± 0.023 |
| ACGCGCGTCG | 1 ± 0.063 |
| TCCCCCTGGT | 1.37 ± 0.069 |
| TTTTCGCCAC | 2.35 ± 1.3 |
| GGGTTCCTAT | 0.987 ± 0.013 |
| AGAAAGCGTT | 1.02 ± 0.022 |
| AAGCCAAGTA | 1 ± 0.023 |
| TGGGAAGTGG | 1.04 ± 0.071 |
| TGTAAATGTG | 1 ± 0.028 |
| ACGGTAGAAC | 1.04 ± 0.021 |
| GTGGCTTTTT | 1 ± 0.037 |
| CATCTTCGCT | 1.0246 ± 7.4e-05 |
| AGGTTAATGT | 0.996 ± 0.032 |
| AAGGGGGAAG | 0.971 ± 0.015 |
| GCTCGGGGTG | 0.986 ± 0.032 |
| ATGCAATGTC | 1.38 ± 0.22 |
| TAGGTTTGCA | 1.02 ± 0.039 |
| GGTCCTAGAA | 0.9724 ± 0.0011 |
| TTTTAATTGA | 1.02 ± 0.031 |
| TGTGGTGAGT | 0.963 ± 0.012 |
| CATTCCCTGA | 0.981 ± 0.011 |
| GAAAAAATTT | 1.031 ± 0.0019 |
| CAGGGTGCCA | 1.003 ± 0.0003 |

| Sequence | switch fluorescence ratio |
| --- | --- |
| ATATTCTAGA | 0.989 ± 0.029 |
| GAATCTAGTG | 1.019 ± 0.0039 |
| TTACTCAGCC | 1.12 ± 0.055 |
| TGGACCAAAA | 1.03 ± 0.013 |
| CAGTAGATGG | 0.985 ± 0.024 |
| ACGGGCTTAG | 1.01 ± 0.016 |
| TTTCAAGGGC | 1.04 ± 0.027 |
| GGCATTTGGT | 0.993 ± 0.025 |
| CGGTCCCTGC | 1.01 ± 0.1 |
| ATGGGGTAAT | 1.01 ± 0.028 |
| TAAAGGGGAG | 1.01 ± 0.019 |
| TCGGGGCAG | 0.976 ± 0.033 |
| TTTGCAATTA | 1.57 ± 0.5 |
| TCGTTAAATT | 0.988 ± 0.035 |
| TATGCTGCTG | 1.01 ± 0.036 |
| AGGGAGAAGG | 1 ± 0.011 |
| TGTTGTTTTT | 0.991 ± 0.037 |
| CGCCTTTACA | 1.02 ± 0.029 |
| ATCTGGCGTC | 0.998 ± 0.033 |
| TGGTGAAAGT | 0.982 ± 0.025 |
| AGGGGATTAC | 1.062 ± 0.0014 |
| AGCTGTTGCA | 0.971 ± 0.024 |
| ATGTGGGCTG | 0.979 ± 0.045 |

| Sequence | switch fluorescence ratio |
| --- | --- |
| GGGGCCAAGT | 0.981 ± 0.037 |
| GAGGGCAATG | 1.22 ± 0.067 |
| TGGGGGATTT | 1.27 ± 0.74 |
| AAAGGTATTC | 1 ± 0.02 |
| ATTTTTTGGC | 0.996 ± 0.01 |
| AAAGTTAGTT | 1.03 ± 0.019 |
| AAACGAGGAG | 1 ± 0.013 |
| TTTCCATTCT | 1 ± 0.015 |
| ACGCCAGCTA | 1.137 ± 0.004 |
| TAATCACAAT | 1.032 ± 0.0044 |
| TCGATAGCGA | 1.19 ± 0.028 |
| TGCCATAATG | 1.02 ± 0.0057 |
| TATGAAGGGA | 0.99 ± 0.021 |
| TTCCGAAAAT | 1.01 ± 0.046 |
| AGAATGAGGG | 0.991 ± 0.041 |
| AGTATATAGT | 1.004 ± 0.0073 |
| AGTGCGTTTG | 1 ± 0.038 |
| CCGTTCTCGC | 1.31 ± 0.048 |
| GCCAATTACG | 1.11 ± 0.03 |
